Where no end group is shown, it is not given here. Dylight649 = Dylight649 fluorophore attached through the cysteine
Biological target: T1, E. coli β-clamp processivity factor (E. coli, UniProt P0A988 1-366)
T1 construct: DNA polymerase III β subunit (β sliding clamp, dnaN), E. coli, full length, from plasmid pACYC11-dnaN; residues up to Leu-366 are named; The last residue of the hexa-histidine tag is modelled in both subunits; also called sliding clamp; not shown: His6, N-terminal, kept
Assay: crystal structure; β-clamp/Dylight649-UmuC peptide complex purified by SEC, 15 mg/ml; crystallised in 200 mM calcium acetate, 200 mM MES pH 6.5, 14% PEG 6000, sitting drop, 12°C; 2.5 Å
Settings: both partners purified

T1 sequence (P0A988 whole entry): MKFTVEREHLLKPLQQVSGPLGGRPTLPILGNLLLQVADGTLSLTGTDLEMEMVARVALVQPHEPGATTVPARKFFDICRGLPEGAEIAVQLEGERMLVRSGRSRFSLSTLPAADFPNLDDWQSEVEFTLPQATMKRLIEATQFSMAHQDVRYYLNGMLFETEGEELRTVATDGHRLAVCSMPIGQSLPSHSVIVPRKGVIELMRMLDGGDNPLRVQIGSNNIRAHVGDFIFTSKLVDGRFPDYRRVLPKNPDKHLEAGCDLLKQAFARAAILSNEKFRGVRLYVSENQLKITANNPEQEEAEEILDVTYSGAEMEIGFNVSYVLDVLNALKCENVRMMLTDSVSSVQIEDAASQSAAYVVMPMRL

B1: Dylight649-UmuC synthetic peptide (Dylight649-C-QGVAQLNLFDD) (peptide)
peptide: C(Dylight649)QGVAQLNLFDD
notes: cysteine added to permit linkage of the chromophore; not a UmuC residue; 12-mer including the added N-terminal cysteine; Only 356-361 (chain D) and 357-361 (chain C) are ordered in the structure; also called Dylight649-Pol V synthetic peptide; UmuC peptide; source: synthetic peptide (Cambridge Peptides)
binding result: binds

— article PMC3716654, “The UmuC subunit of the E. coli DNA polymerase V shows a unique interaction with the β-clamp processivity factor” (BMC Structural Biology, 2013)
